Patent publication EP4545563A1, “ANTIBODIES TARGETING ITGA2 AND ANTIBODY-DRUG […]” (Foreseen Technology (Beijing) Co., Ltd., priority 2022, dated 2024)

Biological target: ITGA2 protein on the surface of human tumor cells (HuCCT1, A431) (human) (UniProt P17301)
Assay: cell-based or functional assay

Sequence of ITGA2 protein on the surface of human tumor cells (HuCCT1, A431) (human) (P17301 30-1181): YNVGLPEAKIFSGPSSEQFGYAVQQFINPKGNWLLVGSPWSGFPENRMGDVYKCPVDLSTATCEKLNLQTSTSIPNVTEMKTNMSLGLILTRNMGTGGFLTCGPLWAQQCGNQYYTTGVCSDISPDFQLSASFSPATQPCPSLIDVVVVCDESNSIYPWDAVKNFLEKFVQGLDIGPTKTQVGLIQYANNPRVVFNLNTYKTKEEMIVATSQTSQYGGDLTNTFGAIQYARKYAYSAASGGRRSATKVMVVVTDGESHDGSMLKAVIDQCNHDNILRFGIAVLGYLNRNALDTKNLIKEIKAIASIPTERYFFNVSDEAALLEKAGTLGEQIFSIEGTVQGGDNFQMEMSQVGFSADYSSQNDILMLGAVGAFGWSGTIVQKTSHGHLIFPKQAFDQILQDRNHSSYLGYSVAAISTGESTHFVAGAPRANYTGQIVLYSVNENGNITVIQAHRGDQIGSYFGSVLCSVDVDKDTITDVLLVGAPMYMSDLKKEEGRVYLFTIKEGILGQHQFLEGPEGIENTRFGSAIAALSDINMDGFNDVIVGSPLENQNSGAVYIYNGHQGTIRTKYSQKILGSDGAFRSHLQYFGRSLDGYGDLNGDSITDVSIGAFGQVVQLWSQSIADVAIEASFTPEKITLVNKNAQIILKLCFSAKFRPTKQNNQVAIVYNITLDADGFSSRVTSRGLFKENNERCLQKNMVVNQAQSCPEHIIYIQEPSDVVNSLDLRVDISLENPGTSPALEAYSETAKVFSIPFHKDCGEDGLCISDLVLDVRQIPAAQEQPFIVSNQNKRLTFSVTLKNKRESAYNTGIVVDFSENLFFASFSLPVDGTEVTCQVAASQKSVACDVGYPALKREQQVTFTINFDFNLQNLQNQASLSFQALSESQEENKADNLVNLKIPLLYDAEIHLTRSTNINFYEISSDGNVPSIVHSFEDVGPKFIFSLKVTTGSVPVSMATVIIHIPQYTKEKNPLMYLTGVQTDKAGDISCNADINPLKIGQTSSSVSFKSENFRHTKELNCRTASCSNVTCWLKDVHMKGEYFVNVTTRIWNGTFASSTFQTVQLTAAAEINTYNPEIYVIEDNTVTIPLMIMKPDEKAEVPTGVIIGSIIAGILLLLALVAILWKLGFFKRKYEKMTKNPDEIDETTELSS

## Vatelizumab-ve-MMAE (antibody)
  A431 cell killing IC50: 0.08 nM
  HuCC-T1 cell killing IC50: 0.89 nM
